B1: CE115HA000 D101H one-arm antibody (antibody, human IgG1, kappa, L234A L235A, N297A, name in Kabat numbering)
heavy: QVQLVESGGGVVQPGRSLRLSCAASGFTFSNAWMHWVRQAPGKGLEWVAQIKAKSNNYATYYAESVKGRFTISRDDSKNSLYLQMNSLKTEDTAVYYCRYVHYGAYYGVHAWGQGTTVTVSSASTKGPSVFPLAPSSKSTSGGTAALGCLVKDYFPEPVTVSWNSGALTSGVHTFPAVLQSSGLYSLSSVVTVPSSSLGTQTYICNVNHKPSNTKVDKKVEPKSCDKTHTCPPCPAPEAAGGPSVFLFPPKPKDTLMISRTPEVTCVVVDVSHEDPEVKFNWYVDGVEVHNAKTKPREEQYASTYRVVSVLTVLHQDWLNGKEYKCKVSNKALPAPIEKTISKAKGQPREPQVYTLPPSRCELTKNQVSLSCAVKGFYPSDIAVEWESNGQPENNYKTTPPVLDSDGSFFLVSKLTVDKSRWQQGNVFSCSVMHEALHNHYTQKSLSLSPDYKDDDDK
chain: EPKSSDKTHTCPPCPAPELLGGPSVFLFPPKPKDTLMISRTPEVTCVVVDVSHEDPEVKFNWYVDGVEVHNAKTKPREEQYNSTYRVVSVLTVLHQDWLNGKEYKCKVSNKALPAPIEKTISKAKGQPREPQVCTLPPSRDELTKNQVSLWCLVKGFYPSDIAVEWESNGQPENNYKTTPPVLDSDGSFFLYSKLTVDKSRWQQGNVFSCSVMHEALHNRYTQKSLSLSP
light: DIVMTQSPLSLPVTPGEPASISCRSSQSLVHSNRNTYLHWYQQKPGQAPRLLIYKVSNRFSGVPDRFSGSGSGTDFTLKISRVEAEDVGVYYCGQGTQVPYTFGQGTKLEIKRTVAAPSVFIFPPSDEQLKSGTASVVCLLNNFYPREAKVQWKVDNALQSGNSQESVTEQDSKDSTYSLSSTLTLSKADYEKHKVYACEVTHQGLSSPVTKSFNRGEC
notes: one-arm antibody
B2: CE115HA000 D101M one-arm antibody (antibody, human IgG1, kappa, L234A L235A, N297A, name in Kabat numbering)
heavy: QVQLVESGGGVVQPGRSLRLSCAASGFTFSNAWMHWVRQAPGKGLEWVAQIKAKSNNYATYYAESVKGRFTISRDDSKNSLYLQMNSLKTEDTAVYYCRYVHYGAYYGVMAWGQGTTVTVSSASTKGPSVFPLAPSSKSTSGGTAALGCLVKDYFPEPVTVSWNSGALTSGVHTFPAVLQSSGLYSLSSVVTVPSSSLGTQTYICNVNHKPSNTKVDKKVEPKSCDKTHTCPPCPAPEAAGGPSVFLFPPKPKDTLMISRTPEVTCVVVDVSHEDPEVKFNWYVDGVEVHNAKTKPREEQYASTYRVVSVLTVLHQDWLNGKEYKCKVSNKALPAPIEKTISKAKGQPREPQVYTLPPSRCELTKNQVSLSCAVKGFYPSDIAVEWESNGQPENNYKTTPPVLDSDGSFFLVSKLTVDKSRWQQGNVFSCSVMHEALHNHYTQKSLSLSPDYKDDDDK
chain: EPKSSDKTHTCPPCPAPELLGGPSVFLFPPKPKDTLMISRTPEVTCVVVDVSHEDPEVKFNWYVDGVEVHNAKTKPREEQYNSTYRVVSVLTVLHQDWLNGKEYKCKVSNKALPAPIEKTISKAKGQPREPQVCTLPPSRDELTKNQVSLWCLVKGFYPSDIAVEWESNGQPENNYKTTPPVLDSDGSFFLYSKLTVDKSRWQQGNVFSCSVMHEALHNRYTQKSLSLSP
light: DIVMTQSPLSLPVTPGEPASISCRSSQSLVHSNRNTYLHWYQQKPGQAPRLLIYKVSNRFSGVPDRFSGSGSGTDFTLKISRVEAEDVGVYYCGQGTQVPYTFGQGTKLEIKRTVAAPSVFIFPPSDEQLKSGTASVVCLLNNFYPREAKVQWKVDNALQSGNSQESVTEQDSKDSTYSLSSTLTLSKADYEKHKVYACEVTHQGLSSPVTKSFNRGEC
notes: one-arm antibody
B3: CE115HA000 D101I one-arm antibody (antibody, human IgG1, kappa, L234A L235A, N297A, name in Kabat numbering)
heavy: QVQLVESGGGVVQPGRSLRLSCAASGFTFSNAWMHWVRQAPGKGLEWVAQIKAKSNNYATYYAESVKGRFTISRDDSKNSLYLQMNSLKTEDTAVYYCRYVHYGAYYGVIAWGQGTTVTVSSASTKGPSVFPLAPSSKSTSGGTAALGCLVKDYFPEPVTVSWNSGALTSGVHTFPAVLQSSGLYSLSSVVTVPSSSLGTQTYICNVNHKPSNTKVDKKVEPKSCDKTHTCPPCPAPEAAGGPSVFLFPPKPKDTLMISRTPEVTCVVVDVSHEDPEVKFNWYVDGVEVHNAKTKPREEQYASTYRVVSVLTVLHQDWLNGKEYKCKVSNKALPAPIEKTISKAKGQPREPQVYTLPPSRCELTKNQVSLSCAVKGFYPSDIAVEWESNGQPENNYKTTPPVLDSDGSFFLVSKLTVDKSRWQQGNVFSCSVMHEALHNHYTQKSLSLSPDYKDDDDK
chain: EPKSSDKTHTCPPCPAPELLGGPSVFLFPPKPKDTLMISRTPEVTCVVVDVSHEDPEVKFNWYVDGVEVHNAKTKPREEQYNSTYRVVSVLTVLHQDWLNGKEYKCKVSNKALPAPIEKTISKAKGQPREPQVCTLPPSRDELTKNQVSLWCLVKGFYPSDIAVEWESNGQPENNYKTTPPVLDSDGSFFLYSKLTVDKSRWQQGNVFSCSVMHEALHNRYTQKSLSLSP
light: DIVMTQSPLSLPVTPGEPASISCRSSQSLVHSNRNTYLHWYQQKPGQAPRLLIYKVSNRFSGVPDRFSGSGSGTDFTLKISRVEAEDVGVYYCGQGTQVPYTFGQGTKLEIKRTVAAPSVFIFPPSDEQLKSGTASVVCLLNNFYPREAKVQWKVDNALQSGNSQESVTEQDSKDSTYSLSSTLTLSKADYEKHKVYACEVTHQGLSSPVTKSFNRGEC
notes: one-arm antibody
B4: CE115HA000 D101N one-arm antibody (antibody, human IgG1, kappa, L234A L235A, N297A, name in Kabat numbering)
heavy: QVQLVESGGGVVQPGRSLRLSCAASGFTFSNAWMHWVRQAPGKGLEWVAQIKAKSNNYATYYAESVKGRFTISRDDSKNSLYLQMNSLKTEDTAVYYCRYVHYGAYYGVNAWGQGTTVTVSSASTKGPSVFPLAPSSKSTSGGTAALGCLVKDYFPEPVTVSWNSGALTSGVHTFPAVLQSSGLYSLSSVVTVPSSSLGTQTYICNVNHKPSNTKVDKKVEPKSCDKTHTCPPCPAPEAAGGPSVFLFPPKPKDTLMISRTPEVTCVVVDVSHEDPEVKFNWYVDGVEVHNAKTKPREEQYASTYRVVSVLTVLHQDWLNGKEYKCKVSNKALPAPIEKTISKAKGQPREPQVYTLPPSRCELTKNQVSLSCAVKGFYPSDIAVEWESNGQPENNYKTTPPVLDSDGSFFLVSKLTVDKSRWQQGNVFSCSVMHEALHNHYTQKSLSLSPDYKDDDDK
chain: EPKSSDKTHTCPPCPAPELLGGPSVFLFPPKPKDTLMISRTPEVTCVVVDVSHEDPEVKFNWYVDGVEVHNAKTKPREEQYNSTYRVVSVLTVLHQDWLNGKEYKCKVSNKALPAPIEKTISKAKGQPREPQVCTLPPSRDELTKNQVSLWCLVKGFYPSDIAVEWESNGQPENNYKTTPPVLDSDGSFFLYSKLTVDKSRWQQGNVFSCSVMHEALHNRYTQKSLSLSP
light: DIVMTQSPLSLPVTPGEPASISCRSSQSLVHSNRNTYLHWYQQKPGQAPRLLIYKVSNRFSGVPDRFSGSGSGTDFTLKISRVEAEDVGVYYCGQGTQVPYTFGQGTKLEIKRTVAAPSVFIFPPSDEQLKSGTASVVCLLNNFYPREAKVQWKVDNALQSGNSQESVTEQDSKDSTYSLSSTLTLSKADYEKHKVYACEVTHQGLSSPVTKSFNRGEC
notes: one-arm antibody
B5: CE115HA000 D101K one-arm antibody (antibody, human IgG1, kappa, L234A L235A, N297A, name in Kabat numbering)
heavy: QVQLVESGGGVVQPGRSLRLSCAASGFTFSNAWMHWVRQAPGKGLEWVAQIKAKSNNYATYYAESVKGRFTISRDDSKNSLYLQMNSLKTEDTAVYYCRYVHYGAYYGVKAWGQGTTVTVSSASTKGPSVFPLAPSSKSTSGGTAALGCLVKDYFPEPVTVSWNSGALTSGVHTFPAVLQSSGLYSLSSVVTVPSSSLGTQTYICNVNHKPSNTKVDKKVEPKSCDKTHTCPPCPAPEAAGGPSVFLFPPKPKDTLMISRTPEVTCVVVDVSHEDPEVKFNWYVDGVEVHNAKTKPREEQYASTYRVVSVLTVLHQDWLNGKEYKCKVSNKALPAPIEKTISKAKGQPREPQVYTLPPSRCELTKNQVSLSCAVKGFYPSDIAVEWESNGQPENNYKTTPPVLDSDGSFFLVSKLTVDKSRWQQGNVFSCSVMHEALHNHYTQKSLSLSPDYKDDDDK
chain: EPKSSDKTHTCPPCPAPELLGGPSVFLFPPKPKDTLMISRTPEVTCVVVDVSHEDPEVKFNWYVDGVEVHNAKTKPREEQYNSTYRVVSVLTVLHQDWLNGKEYKCKVSNKALPAPIEKTISKAKGQPREPQVCTLPPSRDELTKNQVSLWCLVKGFYPSDIAVEWESNGQPENNYKTTPPVLDSDGSFFLYSKLTVDKSRWQQGNVFSCSVMHEALHNRYTQKSLSLSP
light: DIVMTQSPLSLPVTPGEPASISCRSSQSLVHSNRNTYLHWYQQKPGQAPRLLIYKVSNRFSGVPDRFSGSGSGTDFTLKISRVEAEDVGVYYCGQGTQVPYTFGQGTKLEIKRTVAAPSVFIFPPSDEQLKSGTASVVCLLNNFYPREAKVQWKVDNALQSGNSQESVTEQDSKDSTYSLSSTLTLSKADYEKHKVYACEVTHQGLSSPVTKSFNRGEC
notes: one-arm antibody
B6: CE115HA000 D101L one-arm antibody (antibody, human IgG1, kappa, L234A L235A, N297A, name in Kabat numbering)
heavy: QVQLVESGGGVVQPGRSLRLSCAASGFTFSNAWMHWVRQAPGKGLEWVAQIKAKSNNYATYYAESVKGRFTISRDDSKNSLYLQMNSLKTEDTAVYYCRYVHYGAYYGVLAWGQGTTVTVSSASTKGPSVFPLAPSSKSTSGGTAALGCLVKDYFPEPVTVSWNSGALTSGVHTFPAVLQSSGLYSLSSVVTVPSSSLGTQTYICNVNHKPSNTKVDKKVEPKSCDKTHTCPPCPAPEAAGGPSVFLFPPKPKDTLMISRTPEVTCVVVDVSHEDPEVKFNWYVDGVEVHNAKTKPREEQYASTYRVVSVLTVLHQDWLNGKEYKCKVSNKALPAPIEKTISKAKGQPREPQVYTLPPSRCELTKNQVSLSCAVKGFYPSDIAVEWESNGQPENNYKTTPPVLDSDGSFFLVSKLTVDKSRWQQGNVFSCSVMHEALHNHYTQKSLSLSPDYKDDDDK
chain: EPKSSDKTHTCPPCPAPELLGGPSVFLFPPKPKDTLMISRTPEVTCVVVDVSHEDPEVKFNWYVDGVEVHNAKTKPREEQYNSTYRVVSVLTVLHQDWLNGKEYKCKVSNKALPAPIEKTISKAKGQPREPQVCTLPPSRDELTKNQVSLWCLVKGFYPSDIAVEWESNGQPENNYKTTPPVLDSDGSFFLYSKLTVDKSRWQQGNVFSCSVMHEALHNRYTQKSLSLSP
light: DIVMTQSPLSLPVTPGEPASISCRSSQSLVHSNRNTYLHWYQQKPGQAPRLLIYKVSNRFSGVPDRFSGSGSGTDFTLKISRVEAEDVGVYYCGQGTQVPYTFGQGTKLEIKRTVAAPSVFIFPPSDEQLKSGTASVVCLLNNFYPREAKVQWKVDNALQSGNSQESVTEQDSKDSTYSLSSTLTLSKADYEKHKVYACEVTHQGLSSPVTKSFNRGEC
notes: one-arm antibody

molecular target: T1, CD3 epsilon homodimer protein (UniProt P07766 23-126); test: SPR (Biacore T200), CD3 epsilon homodimer on CM4 chip, one-arm antibody as analyte; ratio to unaltered CE115HA000;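 further: surface plasmon resonance run at 25 °C with HBS-EP+ as running buffer, CD3 epsilon homodimer attached by amine coupling, antibody passed over as analyte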
T1 construct: Construct of the homodimer protein is not described; also called CD3 (CD3 epsilon)
T1 sequence (P07766 23-126): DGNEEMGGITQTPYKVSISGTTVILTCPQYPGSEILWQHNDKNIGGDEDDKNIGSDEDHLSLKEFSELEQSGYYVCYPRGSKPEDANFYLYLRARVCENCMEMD

**Q.** Which “KD ratio (KD value of CE115HA000/KD value of the altered form)” value (shortened to “KD ratio”) does the source give for B1 here?
**A.** Its value is 0.91.

**Q.** How did the “KD ratio” value turn out when B2 was run?
**A.** The value was 1.94.

**Q.** B3 was tested. Which “KD ratio” value did it give?
**A.** Its value is 1.73.

**Q.** Which “KD ratio” value does the source give for B4 here?
**A.** Its value is 2.28.

**Q.** Which “KD ratio” value does the source give for B5 here?
**A.** The value was 4.37.

**Q.** B6 was tested. Which “KD ratio” value did it give?
**A.** Its value is 0.71.
